Test results reported in patent publication US7666989B2 (priority 2003, dated 2010).
Where “and” joins values, the source holds several entries; their conditions need not be identical. Equal values may be shown once. Entries after “also recorded” stand apart in the source; their conditions may differ. Read-outs that look alike come from different tables or passages of the source. Marks after values point to notes of the source that are not given here.

Key:
[1] = tested on: SCLC (human small-cell lung cancer cell); experiment: MTT cytotoxicity, SCLC; format: cell-based
Text: (§1) Reagents: RPMI1640 is from GIBCO; MTT is from Bebco. Fetal bovine serum is purchased from Hangzhou SiJiQing Bioengineering Material Co. Ltd. (P. R. China).
(§2) Cell lines: COLO 205 (human colon cancer cell), NCI-H460 (human lung cancer cell), RPMI 8226 (human multiple myeloma cell), U251 (human brain glioma cell) are from ATCC, USA. HL-60 (human promyelocytic leukemia cell), MDA-MB-231, MDA-MB-435 (human breast cancer cell), SCLC (human small-cell lung cancer cell), H125 (human lung cancer cell) and PC-3 (human […] cancer cell).
(§3) The well-grown tumor cells were collected to prepare a cell suspension (1×10^4/ml) with RPMI 1640 medium containing 10% fetal bovine serum. The cell suspension was inoculated into a 96-well plate, 100 μL (containing 1000 tumor cells) per well. The plate was cultured in a 5% CO2 incubator at 37° C. for 24 hours, followed by addition of medicament.
A blank control and a positive control using 5-fluorouracil or adriamycin are employed in the experiment. The CPT samples have five concentrations, three parallel wells for each concentration. The cells were cultured in an incubator with 5% CO2 at 37° C. for 4 days. Then the culture medium was removed and 100 μL MTT solution (0.4 mg/ml in RPMI 1640) was added to each well. The plate was incubated at 37° C. for four additional hours.
The supernatant was discarded. 150 μl DMSO was added into each well in order to solubilize Fomazan granulates. After gently shaking, the OD values were measured by a BIORAD 550 enzyme analyzer, with the detection wavelength being 540 nm and the reference wavelength being 450 nm.
(§4) Dose-response curves were generated by plotting with the cell inhibition rates and different concentrations of medicament, and the half inhibitory concentrations (IC50) were calculated.

[2] = Water solubility of the end product; format: physicochemical; details: purified protein, white powder
Text: Finally, the protein was purified by an ion exchange column and a gel filtration column Superdex 200 (Pharmacia) mounted in an AKTA HPLC system (Pharmacia). […] The end product was a white powder and was water soluble.

human brain glioma U251 = details: U251 xenograft, ten injections; for Body Weight (g) Start / Tumor volume (mm^3) Start: baseline; for Inhibition rate (%): by tumor weight
Text: In this example, the animals used were BALB/c-nu nude mice, 6-8 weeks old. For each experiment, all animals were of the same sex.
Tumor cell lines: human brain glioma U251, human lung cancer cell line NCI-H460, human colon cancer cell line COLO205 were inoculated from in vitro culture into nude mice subcutaneously, the tumors were subcultured and kept.
Experimental Procedures: well-grown nude mice carrying well-grown tumors were selected and sacrificed by disjointing neck vertebra. The tumors were removed aseptically and were cut into pieces having a diameter of 2-3 mm by a scalpel. The pieces were inoculated into the axilla of nude mice subcutaneously by a needle. […] The length and width of tumors were measured by a vernier caliper. The animals were then grouped based their tumor sizes. Each group included seven to eight animals.
The length, width of the tumor and the body weight of the mice were measured twice per week. The tumor volume (TV) and relative tumor volume (RTV) were calculated. A graph indicating the changes of tumor size was plotted. At the end of this experiment, the tumors were taken out and weighed after the mice were sacrificed, and the inhibition rates of the medicament on tumor growth were calculated.
The formula for calculating tumor volume (TV) is: length×width^2÷2.
The formula for calculating relative tumor volume (RTV) is: Vt/Vo (wherein Vo is the TV value measured when the administration is started, Vt is the TV value measured after that).
T-test was used to determine the statistical difference of tumor weights, tumor volumes and RTV etc. between different groups of animal. The index used for evaluating the anti-tumor activity is the relative tumor growth rate T/C (%), the formula for which is: […]
The evaluation standard for efficacy:
T/C (%)>60 is ineffective;
T/C (%)≦60 and P<0.05 after statistical analysis is effective.
The Carmustine (Renmin Pharmaceuticals, Amino Acid Inc. Tianjin, P. R. China) was used as the positive control, 40 mg/kg, administered by intraperitoneal injection for once. CPT was given to four groups at the doses of 0.6 mg/kg, 1.7 mg/kg, 5.0 mg/kg, 15.0 mg/kg respectively, administered by intraperitoneal injection. The treatment included ten injections.

cancer cells = experiment: Induction of apoptosis of cancer cells compared with wild type TRAIL; format: cell-based; details: CPT versus wild type TRAIL
[3] = Side or toxic effects in treated tumor-bearing nude mice; format: in vivo, BALB/c-nu nude mice; details: treated nude mice versus negative control; body weight and viability
Text: No substantial difference in the parameters concerning the living status of mice, such as body weight and viability of the treated groups were observed compared with those of the negative control group, except that the sizes of tumor in the treated mice were smaller. […] Therefore, CPT may be used as an effective and safe medicament for treating cancers. CPT is both theoretically and industrially important and has a bright future in the market.

[4] = tested on: RPMI 8226 (human multiple myeloma cell); experiment: MTT cytotoxicity, RPMI 8226; format: cell-based; details: 4 days
Text: as §1, §2, §3
(§5) A blank control and a positive control using 5-fluorouracil or adriamycin are employed in the experiment. […]
(§6) The supernatant was discarded. […] After gently shaking, the OD values were measured by a BIORAD 550 enzyme analyzer, with the detection wavelength being 540 nm and the reference wavelength being 450 nm.
as §4

[5] = tested on: COLO 205 (human colon cancer cell); experiment: MTT cytotoxicity, COLO 205; format: cell-based; details: 4 days
Text: as §1, §2, §3, §5, §6, §4

[6] = tested on: H125 (human lung cancer cell); experiment: MTT cytotoxicity, H125; format: cell-based; details: 4 days
Text: as §1, §2, §3, §5, §6, §4

[7] = tested on: MDA-MB-435 (human breast cancer cell); experiment: MTT cytotoxicity, MDA-MB-435; format: cell-based; details: 4 days
Text: as §1, §2, §3, §5, §6, §4

[8] = tested on: PC-3 (human pancreas cancer cell); experiment: MTT cytotoxicity, PC-3; format: cell-based; details: 4 days
Text: as §1, §2, §3, §5, §6, §4

B1: CPT: human recombinant circularly permuted TRAIL (CPT), which consists of 166 amino acid residues; SEQ ID No:2 (protein)
chain: TLSSPNSKNEKALGRKINSWESSRSGHSFLSNLHLRNGELVIHEKGFYYIYSQTYFRFQEEIKENTKNDKQMVQYIYKYTSYPDPILLMKSARNSCWSKDAEYGLYSIYQGGIFELKENDRIFVSVTNEHLIDMDHEASFFGAFLVGGGGGGVAAHITGTRGRSNT
modifications: Synthetically generated peptide
[1]; 4 days
  IC50: 10 ± 0 µg/mL
[1]; in words
  inhibitory effect on the growth of SCLC cell: some inhibitory effect; also recorded: some inhibition effect
[2]
  water solubility of the end product: water soluble
Human brain glioma U251; CPT 0.6 mg/kg i.p.
  Body Weight (g) End: 21.0 ± 1.4 g
  RTV: 2.77 ± 1.97
  T/C (%): 82.9%
  Tumor volume (mm^3) End: 961 ± 582 mm^3
  Tumor weight: 0.89 ± 0.49 g
  Body Weight (g) Start: 21.0 ± 0.8 g
  Tumor volume (mm^3) Start: 141 ± 40 mm^3
  Inhibition rate (%): 30.5%
Human brain glioma U251; CPT 1.7 mg/kg i.p.
  Body Weight (g) End: 21.5 ± 2.0 g
  RTV: 2.12 ± 1.29
  T/C (%): 63.5%
  Tumor volume (mm^3) End: 588 ± 215** mm^3
  Tumor weight: 0.71 ± 0.22 g
  Body Weight (g) Start: 21.6 ± 1.2 g
  Tumor volume (mm^3) Start: 131 ± 34 mm^3
  Inhibition rate (%): 44.5%
Human brain glioma U251; CPT 5.0 mg/kg i.p.
  Body Weight (g) End: 21.9 ± 3.2 g
  RTV: 1.32 ± 1.24
  T/C (%): 39.5%
  Tumor volume (mm^3) End: 510 ± 333** mm^3
  Tumor weight: 0.45 ± 0.26 g
  Body Weight (g) Start: 22.0 ± 1.1 g
  Tumor volume (mm^3) Start: 133 ± 57 mm^3
  Inhibition rate (%): 64.8%
Human brain glioma U251; CPT 15 mg/kg i.p.
  Body Weight (g) End: 21.1 ± 1.7 g
  RTV: 0.71 ± 0.57
  Tumor volume (mm^3) End: 261 ± 238** mm^3
  Tumor weight: 0.16 ± 0.15 g
  Body Weight (g) Start: 21.6 ± 1.1 g
  Tumor volume (mm^3) Start: 148 ± 58 mm^3
  Inhibition rate (%): 87.5% and 87.7%
Cancer cells
  activity to induce apoptosis of cancer cells relative to wild type TRAIL: six to eleven times as strong
[3]
  side or toxic effects on animals: did not exhibit any apparent side or toxic effects
[4]
  IC50: 0.824 ± 0.093 µg/mL
[5]
  IC50: 0.006 ± 0 µg/mL
[6]
  IC50: 0.085 ± 0.006 µg/mL
[7]
  IC50: 0.008 ± 0.002 µg/mL
[8]
  IC50: 0.067 ± 0.002 µg/mL
